To fix the notation:
B1: mAb G196 [mouse] / biotin-SGSGSDLVPRG [modified: biotin on the N-terminus; biotin on the N-terminus] (parent complex)
chain 1: QVKLQESGAELVKPGASVKLSCKASGYTFTNYWMHWVKLRPGQGFEWIGEINPSNGGSNYNEKFKRKATLTVDKSSSTAYMQLSSLTSEDSAVFYCSIWDSYFDYWGQGTTLTVSSAKTTPPSVYPLAPGSAAQTNSMVTLGCLVKGYFPEPVTVTWNSGSLSSGVHTFPAVLQSDLYTLSSSVTVPSSPWPSETVTCNVAHPASSTKVDKKIVPRDC
chain 2: NIVMTQSPKSMSMSVGERVTLTCKASENVVTYVSWYQQKPEQSPKLLIYGASNRYTGVPDRFTGSGSATDFTLTISSVQAEDLADYHCGQGYSYPYTFGGGTKLEIKRADAAPTVSIFPPSSEQLTSGGASVVCFLNNFYPKDINVKWKIDGSERQNGVLNSWTDQDSKDSTYSMSSTLTLTKDEYERHNSYTCEATHKTSTSPIVKSFNRNEC
chain 3: SGSGSDLVPRG

For 77 variants, ratio to parent results are on record in article PMC5339894, “G196 epitope tag system: a novel monoclonal antibody, G196, recognizes the small, soluble peptide DLVPR with high affinity” (Scientific Reports, 2017).

Variants of B1 are the subject of the assay. As to the kind of experiment: permutation ELISA (densitometry of spots); parent: 1; read off a plot. (An ELISA detects its analyte on a solid surface through an enzyme-linked reagent.)
chain 3 R10H: the ratio to parent was roughly 0.38.

Turning to chain 3 V8T, the ratio to parent was roughly 0.95.

Consider chain 3 V8M, for which the ratio to parent is roughly 0.09.

On to chain 3 V8L, for which the ratio to parent is roughly 0.13.

Regarding chain 3 V8A, the ratio to parent is roughly 0.82.

Take chain 3 V8Q: the ratio to parent is roughly 0.16.

chain 3 V8N: the ratio to parent is roughly 0.11.

Regarding chain 3 V8E, the ratio to parent is roughly 0.07.

Take chain 3 V8F: the ratio to parent is roughly 0.04.

Regarding chain 3 V8W, the ratio to parent is roughly 0.03.

With chain 3 V8R, the ratio to parent was roughly 0.07.

For chain 3 V8P, the ratio to parent was roughly 0.04.

As to chain 3 V8S, the ratio to parent is roughly 0.44.

As to chain 3 V8H, the ratio to parent is roughly 0.08.

Consider chain 3 V8I, for which the ratio to parent is roughly 0.96.

As to chain 3 V8G, the ratio to parent was roughly 0.03.

With chain 3 V8Y, the ratio to parent is roughly 0.05.

Take chain 3 V8K: the ratio to parent was roughly 0.05.

Consider chain 3 V8C, for which the ratio to parent is roughly 0.08.

With chain 3 V8D, the ratio to parent is roughly 0.03.

As for chain 3 P9V, the ratio to parent was roughly 0.87.

For the variant chain 3 P9M, the ratio to parent is roughly 0.82.

As for chain 3 P9A, the ratio to parent was roughly 0.98.

For chain 3 P9N, the ratio to parent was roughly 0.76.

Regarding chain 3 P9C, the ratio to parent is roughly 0.78.

Consider chain 3 P9R, for which the ratio to parent is roughly 0.74.

For the variant chain 3 P9S, the ratio to parent is roughly 0.81.

For the variant chain 3 P9Y, the ratio to parent was roughly 0.89.

For the variant chain 3 P9W, the ratio to parent is roughly 0.82.

Take chain 3 P9K: the ratio to parent is roughly 0.4.

In the case of chain 3 P9T, the ratio to parent was roughly 0.59.

Turning to chain 3 P9I, the ratio to parent is roughly 0.85.

For the variant chain 3 P9F, the ratio to parent was roughly 0.86.

As for chain 3 P9G, the ratio to parent was roughly 0.67.

For the variant chain 3 P9H, the ratio to parent was roughly 0.74.

On to chain 3 P9L, for which the ratio to parent was roughly 0.72.

Regarding chain 3 P9E, the ratio to parent is roughly 0.86.

Consider chain 3 P9D, for which the ratio to parent was roughly 0.78.

On to chain 3 P9Q, for which the ratio to parent was roughly 0.72.

For the variant chain 3 L7W, the ratio to parent is roughly 0.05.

Regarding chain 3 L7Q, the ratio to parent is roughly 0.07.

chain 3 L7K: the ratio to parent was roughly 0.1.

For chain 3 L7P, the ratio to parent was roughly 0.02.

For chain 3 L7F, the ratio to parent was roughly 0.72.

In the case of chain 3 L7M, the ratio to parent is roughly 0.84.

As to chain 3 L7V, the ratio to parent was roughly 0.11.

As to chain 3 L7D, the ratio to parent is roughly 0.11.

Turning to chain 3 L7G, the ratio to parent is roughly 0.04.

With chain 3 L7E, the ratio to parent is roughly 0.08.

Regarding chain 3 L7C, the ratio to parent was roughly 0.06.

Regarding chain 3 L7R, the ratio to parent was roughly 0.13.

Regarding chain 3 L7T, the ratio to parent is roughly 0.11.

With chain 3 L7I, the ratio to parent was roughly 0.99.

For chain 3 L7Y, the ratio to parent is roughly 0.15.

As to chain 3 L7A, the ratio to parent was roughly 0.08.

chain 3 L7S: the ratio to parent was roughly 0.06.

For the variant chain 3 L7H, the ratio to parent is roughly 0.62.

Consider chain 3 L7N, for which the ratio to parent is roughly 0.6.

For the variant chain 3 D6R, the ratio to parent was roughly 0.07.

Turning to chain 3 D6G, the ratio to parent is roughly 0.7.

For chain 3 D6K, the ratio to parent was roughly 0.05.

On to chain 3 D6Y, for which the ratio to parent is roughly 0.11.

Turning to chain 3 D6S, the ratio to parent was roughly 0.95.

In the case of chain 3 D6L, the ratio to parent was roughly 0.06.

For chain 3 D6W, the ratio to parent is roughly 0.12.

With chain 3 D6N, the ratio to parent is roughly 0.25.

Consider chain 3 D6P, for which the ratio to parent was roughly 0.16.

For the variant chain 3 D6E, the ratio to parent was roughly 1.

Regarding chain 3 D6T, the ratio to parent was roughly 0.19.

For chain 3 D6M, the ratio to parent is roughly 0.11.

chain 3 D6A: the ratio to parent was roughly 0.38.

chain 3 D6H: the ratio to parent was roughly 0.15.

On to chain 3 D6I, for which the ratio to parent is roughly 0.08.

In the case of chain 3 D6F, the ratio to parent was roughly 0.09.

Turning to chain 3 D6V, the ratio to parent was roughly 0.04.

Turning to chain 3 D6Q, the ratio to parent is roughly 0.48.

chain 3 D6C: the ratio to parent was roughly 0.26.
